The record followed here is patent publication US10745460B2, “Peptides and combination of peptides for use in immunotherapy against various tumors” (Immatics Biotechnologies GmbH, priority 2015, dated 2020).

The test addresses HLA-A*02:01 (Homo sapiens, UniProt P04439, D140Y/D185E/D98H/E176V/E277Q/G131W/G231S/I119V/I121R/I166T/I218V/L300P/L318F/N151K/N90K/P208A/P217A/Q86G/Q94H/R138H/R169H/T345S). In words: MHC binding assay: UV-ligand exchange with β2m ELISA (peptide exchange yield). Conditions: binding to HLA-A*02:01 evaluated by peptide exchange yield (UV-ligand exchange, β2m ELISA). An excerpt:
Candidate peptides for T cell based therapies according to the present invention were further tested for their MHC binding capacity (affinity). The individual peptide-MHC complexes were produced by UV-ligand exchange, where a UV-sensitive peptide is cleaved upon UV-irradiation, and exchanged with the peptide of interest as analyzed. Only peptide candidates that can effectively bind and stabilize the peptide-receptive MHC molecules prevent dissociation of the MHC complexes. To determine the yield of the exchange reaction, an ELISA was performed based on the detection of the light chain (β2m) of stabilized MHC complexes. The assay was performed as generally described in Rodenko et al. (Rodenko et al., 2006).
96 well MAXISorp plates (NUNC) were coated over night with 2 ug/ml streptavidin in PBS at room temperature, washed 4× and blocked for 1 h at 37° C. in 2% BSA containing blocking buffer. Refolded HLA-A*02:01/MLA-001 monomers served as standards, covering the range of 15-500 ng/ml. Peptide-MHC monomers of the UV-exchange reaction were diluted 100 fold in blocking buffer. Samples were incubated for 1 h at 37° C., washed four times, incubated with 2 ug/ml HRP conjugated anti-β2m for 1 h at 37° C., washed again and detected with TMB solution that is stopped with […]. Absorption was measured at 450 nm. Candidate peptides that show a high exchange yield (preferably higher than 50%, most preferred higher than 75%) are generally preferred for a generation and production of antibodies or fragments thereof, and/or T cell receptors or fragments thereof, as they show sufficient avidity to the MHC molecules and prevent dissociation of the MHC complexes.
(In general: In an ELISA, binding on a coated surface is turned into a signal by an enzyme label.)

Turning to “130 (QLYGSAITL; listed as Homo sapiens) [compound 130]”, the Peptide exchange entry is “+++ (≥50 = +++)”.

Take “117 (TLLEGISRA; listed as Homo sapiens) [compound 117]”: the Peptide exchange entry was “++ (≥20% = ++)”. Take “112 (ILAQDVAQL; listed as Homo sapiens) [compound 112]”: the Peptide exchange entry is reported as “+++ (≥50 = +++)”. To “282 (SLYALHVKA; listed as Homo sapiens) [compound 282]” belongs “++ (≥20% = ++)”; to “108 (FIANLPPELKA; listed as Homo sapiens) [compound 108]”, “+++ (≥50 = +++)”; to “131 (SLYPHFTLL; listed as Homo sapiens) [compound 131]”, “+++ (≥50 = +++)”. Then “65 (SLSEKSPEV; listed as Homo sapiens) [compound 65]”, with “++ (≥20% = ++)”; and “77 (ALYGNVQQV; listed as Homo sapiens) [compound 77]”, with “+++ (≥50 = +++)”; and “153 (KLVELEHTL; listed as Homo sapiens) [compound 153]”, with “+++ (≥50 = +++)”. To “89 (SLAETIFIV; listed as Homo sapiens) [compound 89]” belongs “+++ (≥50 = +++)”.

As for “49 (KLIGNIHGNEV; listed as Homo sapiens) [compound 49]”, the Peptide exchange result is reported as “++ (≥20% = ++)”.

Turning to “160 (TLQEWLTEV; listed as Homo sapiens) [compound 160]”, the Peptide exchange result is on record as “+++ (≥50 = +++)”. In the case of “245 (ALLEEEEGV; listed as Homo sapiens) [compound 245]”, the Peptide exchange result is given as “++ (≥20% = ++)”.

With “140 (FLDSQITTV; listed as Homo sapiens) [compound 140]”, the Peptide exchange result is reported as “+++ (≥50 = +++)”. In the case of “243 (GLAEFQENV; listed as Homo sapiens) [compound 243]”, the Peptide exchange entry is on record as “++ (≥20% = ++)”.

Take “115 (ILHGEVNKV; listed as Homo sapiens) [compound 115]”: the Peptide exchange entry is on record as “++ (≥20% = ++)”. Then “220 (ALSELERVL; listed as Homo sapiens) [compound 220]”, with “+++ (≥50 = +++)”; and “143 (MLWESIMRV; listed as Homo sapiens) [compound 143]”, with “+++ (≥50 = +++)”; and “235 (SLLNQPKAV; listed as Homo sapiens) [compound 235]”, with “++ (≥20% = ++)”.

For the substance “57 (TLYPGRFDYV; listed as Homo sapiens) [compound 57]”, the Peptide exchange result is “++ (≥20% = ++)”. With “259 (GPGIFPPPPPQP; listed as Homo sapiens) [compound 259]”, the Peptide exchange entry is on record as “+ (≥10% = +)”. To “188 (VLGEEQEGV; listed as Homo sapiens) [compound 188]” belongs “++ (≥20% = ++)”; to “41 (IVTEIISEI; listed as Homo sapiens) [compound 41]”, “+++ (≥50 = +++)”; to “199 (SVADLAHVL; listed as Homo sapiens) [compound 199]”, “++ (≥20% = ++)”.

Take “225 (FLPQPVPLSV; listed as Homo sapiens) [compound 225]”: the Peptide exchange entry was “+++ (≥50 = +++)”. For “137 (KLIYKDLVSV; listed as Homo sapiens) [compound 137]”, the Peptide exchange result was “++ (≥20% = ++)”.

In the case of “70 (GLTEKTVLV; listed as Homo sapiens) [compound 70]”, the Peptide exchange entry is given as “++ (≥20% = ++)”.

Take “257 (KLIDHQGLYL; listed as Homo sapiens) [compound 257]”: the Peptide exchange entry is recorded as “+++ (≥50 = +++)”. To “163 (GLEERLYTA; listed as Homo sapiens) [compound 163]” belongs “++ (≥20% = ++)”. To “52 (TIGIPFPNV; listed as Homo sapiens) [compound 52]” belongs “++ (≥20% = ++)”; to “139 (IILENIQSL; listed as Homo sapiens) [compound 139]”, “+++ (≥50 = +++)”; to “159 (QLGPVPVTI; listed as Homo sapiens) [compound 159]”, “+++ (≥50 = +++)”. Then “168 (VIFEGEPMYL; listed as Homo sapiens) [compound 168]”, with “+++ (≥50 = +++)”; and “55 (HLFDKIIKI; listed as Homo sapiens) [compound 55]”, with “+++ (≥50 = +++)”. With “10 (QLIEKNWLL; listed as Homo sapiens) [compound 10]”, the Peptide exchange result is listed as “+++ (≥50 = +++)”. In the case of “74 (GLAFLPASV; listed as Homo sapiens) [compound 74]”, the Peptide exchange entry is “++ (≥20% = ++)”.

As for “150 (VLLDMVHSL; listed as Homo sapiens) [compound 150]”, the Peptide exchange result was “+++ (≥50 = +++)”. To “164 (MLIIRVPSV; listed as Homo sapiens) [compound 164]” belongs “+++ (≥50 = +++)”. To “50 (ILLSVLHQL; listed as Homo sapiens) [compound 50]” belongs “+++ (≥50 = +++)”.

Turning to “207 (KLFETVEEL; listed as Homo sapiens) [compound 207]”, the Peptide exchange entry was “+++ (≥50 = +++)”. Then “280 (HLWGHALFL; listed as Homo sapiens) [compound 280]”, with “+++ (≥50 = +++)”.

Turning to “29 (KMISAIPTL; listed as Homo sapiens) [compound 29]”, the Peptide exchange result is on record as “++ (≥20% = ++)”. Then “51 (LDSEALLTL; listed as Homo sapiens) [compound 51]”, with “++ (≥20% = ++)”; and “83 (GLLENSPHL; listed as Homo sapiens) [compound 83]”, with “++ (≥20% = ++)”. To “64 (SLYAGSNNQV; listed as Homo sapiens) [compound 64]” belongs “++ (≥20% = ++)”. Then “66 (AMFPDTIPRV; listed as Homo sapiens) [compound 66]”, with “++ (≥20% = ++)”; and “98 (FVQEKIPEL; listed as Homo sapiens) [compound 98]”, with “+++ (≥50 = +++)”; and “67 (FLIENLLAA; listed as Homo sapiens) [compound 67]”, with “+++ (≥50 = +++)”.

“261 (GLAALAVHL; listed as Homo sapiens) [compound 261]”: the Peptide exchange entry was “+++ (≥50 = +++)”. For “47 (GLNGFNVLL; listed as Homo sapiens) [compound 47]”, the Peptide exchange result was “+++ (≥50 = +++)”. Then “213 (ILAVDGVLSV; listed as Homo sapiens) [compound 213]”, with “+++ (≥50 = +++)”.

Consider “100 (ALQSFEFRV; listed as Homo sapiens) [compound 100]”, for which the Peptide exchange result is “+++ (≥50 = +++)”. To “279 (VLMDEGAVLTL; listed as Homo sapiens) [compound 279]” belongs “++ (≥20% = ++)”. Then “200 (IMPTFDLTKV; listed as Homo sapiens) [compound 200]”, with “+++ (≥50 = +++)”; and “23 (ALLSPLSLA; listed as Homo sapiens) [compound 23]”, with “+++ (≥50 = +++)”. With “278 (VLEDKVLSV; listed as Homo sapiens) [compound 278]”, the Peptide exchange entry is listed as “+++ (≥50 = +++)”. To “129 (KMASKVTQV; listed as Homo sapiens) [compound 129]” belongs “++ (≥20% = ++)”. Consider “5 (GLVDIMVHL; listed as Homo sapiens) [compound 5]”, for which the Peptide exchange result is listed as “+++ (≥50 = +++)”. As for “253 (KLLAVIHEL; listed as Homo sapiens) [compound 253]”, the Peptide exchange result is “+++ (≥50 = +++)”.

Consider “136 (LLWDAPAKC; listed as Homo sapiens) [compound 136]”, for which the Peptide exchange result is “+++ (≥50 = +++)”. Then “28 (IKVTDPQLLEL; listed as Homo sapiens) [compound 28]”, with “++ (≥20% = ++)”; and “45 (FLPVSVVYV; listed as Homo sapiens) [compound 45]”, with “+++ (≥50 = +++)”; and “268 (SLDKDIVAL; listed as Homo sapiens) [compound 268]”, with “++ (≥20% = ++)”. To “206 (GLDAFRIFL; listed as Homo sapiens) [compound 206]” belongs “++++ (≥75% = ++++)”; to “17 (GLLPSAESIKL; listed as Homo sapiens) [compound 17]”, “++++ (≥75% = ++++)”; to “144 (FLISQTPLL; listed as Homo sapiens) [compound 144]”, “+++ (≥50 = +++)”.
